Reference: a protein production outcome set (Wang et al. 2014)

Experiment: label from the status in PepcDB records

Sequence | protein production
MKEDKKLVKQARQNFRSNLKSARMHYRKEVRTLKQTVPKKGRFRKSAKNSLFQEKKTELKGNLLSSQKEAEEKFIKEITYVSPRLLKAKEIKNYRLPQAQERLRTARKHLSEVKLSEKQQVVNPKFTFQKENPSLKSRFQFHQEKSFDRLSAEKDVSSAKREVKQLKKVQKTKKNSTKVKAGLGLAASESLDLIAQEDDLDGLRTMKDTSLKARRYGRFTYQAGKVAVKSGQTGVRFTKTKFSHGKERFQNFKKGKGFTRQKPLKPRRRYQTFLNHVRKQSVAGFKGIVQAIKGSMTFFSVLAGNPLTWIVSGILLILLLMMSFFMSVSGSSVIQQDEIELSKSYTHMTWEDAEHTRTNDKGITFYTKIDEVMVYMNHQYQDYKLDDFIETSGTTYKEFLSQLWSDLNGGDSIKSMSDLYKEPAYKLSDEDQEELNELTEEGNYLALQELDNPFQGQTDEDSLSMTYRYGYEVIDEKPTLHHHIILEAKEGQVIVAPMDGKVSLDGENVVLTSGKGVNKTKLTLFGIHSGRVSENQQVLAGDIIGQTKDGTGLKVTYQKVDDDTDKLVYVNPAFYFPKVIQVQTTILPTIGQFGGDEFERAKAIYDYLKSKGATNQAIAAILGNWSVESSINPKRAEGDYLSPPVGATDSSWDDEGWLTLNGPTIYNGRYPNILKRGLGLGQWTDTADGSRRHTLLLEYAKGKHQKWYDLGLQLDFMLYGDSPYYTNWLKDFFKNSGSPASLAQLFLIYWEGNSGDKLLERQTRASEWYYQIEKGFSQPNGGTAQSDPKALEAVREDLFENSIPGGGDGMGYAYGQCTWGVAARINQLGLKLKGKNGEKIPIISTMGNGQDWVRTAASLGGETGTSPQEGAILSFAGGGHGTPTEYGHVAFVEKVYPDGSFLISETNYNGNPNYTFRKLSGVDSSLSFAYTTK | failed
MAIIASNNSWDLYQLAVVILNYRTPQLVVDCLASLVSQIDPQTQQVIVVDNASGDDSVEEIEKAIANNNWQDWVRLLPSDVNGGFSAGNNLGIQAIRAENYLLLNSDTIVRPGAIQTLLVALEQYPEAGLFSPRLEWPDGTPQISCFRDHSPLSEMIDGARTSVITKLLQPFDVPIPVTEQSFEPQWTSFACVLIRRSVVEQIGLMDDGYFMYYDDIDYCRRARQAAWKIRYIPQASVVHLRGGSGSVKSDVASRKRPRPYLYASRSRYFAKFYGPLGLALANLGWLGGWGIAALREILGQKEPHTCDRQWQDIWFQWRQPLKPYRPELEHHHHHH | not failed
MQRGSRQLYLGDPATDKLQVPEMPMQVLTAFVPGMEVAISAISSYLSTKKMSEGGAGPLLQKRRPNTRKLWSEGRVQPRPFCVLSGLAPPRSRPGPWGPFKAASWPAGTCFAPSDAAEVAASPLRRRGDCWEGRRDGGSETSSRSRIRVKRDRSKSQSRTKAEGAGRRGPVGPGDPVRPDGEKRLQARRPPAPPLASTDRKTMATMVLPREEKLSQDEIVLGTKAVIQGLETLRGEHRALLAPLASHEAGEAEPGSQERCLLLRRSLEAIELGLGEAQVILALSSHLGAVESEKQKLRAQVRRLVQENQWLREELAGTQQKLQRSEQAVAQLEEEKQHLLFMSQIRKLDEDASPNEEKGDVPKDSLDDLFPNEDEQSPAPSPGGGDVAAQHGGYEIPARLRTLHNLVIQYASQGRYEVAVPLCKQALEDLEKTSGHDHPDVATMLNILALVYRDQNKYKDAAHLLNDALAIREKTLGKDHPAVAATLNNLAVLYGKRGKYKEAEPLCKRALEIREKVLGKFHPDVAKQLSNLALLCQNQGKAEEVEYYYRRALEIYATRLGPDDPNVAKTKNNLASCYLKQGKYQDAETLYKEILTRAHEKEFGSVNGENKPIWMHAEEREESKDKRRDSAPYGEYGSWYKACKVDSPTVNTTLRSLGALYRRQGKLEAAHTLEDCASRSRKQGLDPASQTKVVELLKDGSGGRGDRRGSRDVAGGAGPRSESDLEESGPAAEWSGDGSGSLRRSGSFGKLRDALRRSSEMLVRKLQGGGPQEPPNSRMKRASSLNFLNKSVEEPVQPGGTGLSDSRTLSSSSMDLSRRSSLVG | failed
MADNINESEIIERLNSAPSVRGFFIATVDVFNESIDGLIQRIFRKDNFAVQSVVGPLLQDSGPLGDLSVRLKLLFGLGVLPDDIYHDIEDIIKLKNHLNSDASDYEFTDPNILEPIKKLHLVKKMGMVQLEVNEPDDDIDLEFYQLQLQRQQQIIKSGLSLAIVEICNELGK | not failed
MSLDNLDVICIGAAIVDIPLQPVSKNIFDVDSYPLERIAMTTGGDAINEATIISRLGHRTALMSRIGKDAAGQFILDHCRKENIDIQSLKQDVSIDTSINVGLVTEDGERTFVTNRNGSLWKLNIDDVDFARFSQAKLLSLASIFNSPLLDGKALTEIFTQAKARQMIICADMIKPRLNETLDDICEALSYVDYLFPNFAEAKLLTGKETLDEIADCFLACGVKTVVIKTGKDGCFIKRGDMTMKVPAVAGITAIDTIGAGDNFASGFIAALLEGKNLRECARFANATAAISVLSVGATTGVKNRKLVEQLLEEYEGEGHHHHHH | not failed
MSRKTMNPTTVTQQLQKTYQAVGDGLLSEAFGLVRASVPSQQSHFLTRIDDLENVYRQLLSYFAQGVKDEKQAEMLLYLKRKLIGLAAEVHRESVVAQGTGLFYDRLRYRRSIGFESLVTLLEQAETSTVRKQFDELVRLIFDSLWTADALTDEEAAALSHAGEYIRLVAASALTMALQQQWHSKKLYFLLEELARPDITADYRARLLVGVVLTLRSYPHHTRLYYNEIALRLEAVNEHIPLEPTLEMLSIRFLFACETESITKHLQTELFSDIQKIAPDLRKFGMGDTESIQETGNPEWMEELEKSGLGDKIREFSELQLEGADVMHSSFMNLKGSSFFREMHNWFLPFDAAHSRIAPLLEENAVLKQLVEAIGPQLCNSDRYSFIVSMESLPAALRGSAMGAVGGELDALKEQIKQDVPVGETGKLDTAIKSYLQDLYRFYKVCERKNEFDDIFLSPIPPDLPVLDRYLYKRDTLLHTAEFLFRRKHYDRAAKLLADLAEGKESATDTTLHQKLGFSLQQQGLFAQALAAYSRAELIDTENEWLLKRMAHCYRQLCRPAEAAEIYERLFERNPHEATLLLQRGNALVEDSRYDEALQCFFRYEFSVDDASKARRPIAWCLFLTGQYERAGDYYRTILESDDLSTFTDRLNAGHTSLAMGQIPVAIDHYLAGLKLTPNGKDEFLAAYTADIPVLLKAGIEDAVIRLIPEVLRLHPN | failed
MDKVILITGASGGIGEGIARELGRRCENIVGCTPPGPYRGHCHGDSTQEVPPWRRCWTPTVTPWQPLQAAVDTWGRIDVLVNNAGVMPLSACRSGGRVGAHDRREHQGRALGSGPYCQSWRHSVAGRSSISARSALSVVPTAAVYCATKFAVRAISDTAPGEYQYPRHLRQSRRRRKRTCEPSPTRRPWRRWTPIAPSRFSLDIARAVRQVIEAPQSVDTTEITITDRIGQL | not failed
MLRMKKFLVVFFLVQSIFVFAQQSKKVESALKTFNSGKIDDGIKKMEAATQEDPSEDNWDLLVQMYKYRYEYAEQQQEDALTLLLLQSLGGSKAKIKKYTSPSVCYRDLIEKSKQAELNSRSTTASMVLRAYLVDYYPDTAVADTAKKEFNSAEKYFSEKDYPNAKLHYQNACKLDPSYYKALIYLGDTHWHMKKMDSAIYYFKQGIQMHGDLLEPRKYLVDALRDSKQYDEAIQESINAITVYPDESMFEKVESLYAKTGRTFDRHWIKRGCNVNTYAGTQLVTTNETWKAYQQARGEIKTYCDTNGVIVKSNSLTKAHYMEVYSWEKMLASNLVVPQELAFAKKMADEGYLDCYVFISLYHYDEYDQFIDFAKNNKERIRTYITKYLIQ | failed
MALPQLSIWQPGDGLRKIKYKYHVCLIVIFSVLIRLLFLTDRYLWCDEASSVLISRHSVDNLLFHAAFDVHPPLYYLLLHDWIILLGDSIAAVRSLSLLFGILTVVLVIALTRWLANERTALLAGWFAALMPMAVHYSQETRMYALMGMLTLAAALALMMWIKTPTHNRYLVAYALLMTFSFYTHYFTLFTLIAHWIAVTILSCQSHKTACYLKLPGWWFANLAIAVAYLPWLPVLFNLLTHLAQLRAGNDIGWIPPVTWRDLPAMYWHFFTGNNGQGFPSFILWLAVGGFIGTVGRISLYNGEYERYQLILFCNLVIPVMLVFIISWWMPLFIDRYFFFSSLSIPPLLAVLLTRAKKAVCGFWFILFTLLFGYGSYHNNPEHIDEFKPLVNYINTRHQPNDAVVVSKMFDYLSYVYYNKRDYRTFLYTPPNAHGTSGRPNAYGFGSLFYAQADQTYIDTLTTLSKSYHRVWLVSGGNFSQDYPLPSEWQNIAKFRSGRFQVQLFVIPTQQARQMQ | failed
MKMDYKEQSHIIPTYKRFDIVLEKGQGVYLFDDKAKKYLDFSSGIGVCALGYNHAKFNAKIKAQVDKLLHTSNLYYNENIAAAAKNLAKASALERVFFTNSGTESIEGAMKTARKYAFNKGVKGGQFIAFKHSFHGRTLGALSLTANEKYQKPFKPLISGVKFAKYNDISSVEKLVNEKTCAIILESVQGEGGINPANKDFYKALRKLCDEKDILLIADEIQCGMGRSGKFFAYEHAQILPDIMTSAKALGCGLSVGAFVINQKVASNSLEAGDHGSTYGGNPLVCAGVNAVFEIFKEEKILENVNKLTPYLEQSLDELINEFDFCKKRKGLGFMQGLSLDKSVKVAKVIQKCQENALLLISCGENDLRFLPPLILQKEHIDEMSEKLRKALKSF | not failed
MTKKQKEILFCDYFEEWVEVYKVGAIAKITLAKYYNAAKQLRDLCPKLFISDFDRREYQRIINVYAETHEKQTVKDFHHHVKACIKDLFHDGLIDKDPTYRVVIKGAEPTRAKLEHHHHHH | failed
TSLEEITKAIMADSQNKVFTEKNIEPLFAAPKTARINIVGQAPGIKAQESRLYWNDKSGDRLREWMGVDYDTFYHSGYFAVIPMDFYYPGKGKSGDLPPRKGFAQKWHQPILDLLPDIQLTILIGNYAQKYYLHQKSSVKLTDTVAHYKKYLPDYFPLVHPSPRNQIWMSRHPWFEAQVVPDLKKIIQQII | not failed
QSAKEAIEAANADFVKAYNSKDAAGVASKYMDDAAAFPPDMARVDGRQNIQKLWQGAMDMGISELKLTTLDVQESGDFAFESGSFSLKAPGKDSKLVDAAGKYVVVWRKGQDGGWKLYRDIWNSDPAK | not failed
CVACSKPISGLTGAKFICFQDSQWHSECFNCGKCSVSLVGKGFLTQNKEIFCQKCGSGMDTDI | not failed
MTICCPVIALAFALNRKPVSAPTARIAVLARNTSMSFASLGLIDPLLRNLQDLNYQTPTPVQVKAIPAVLGGKDVMAGAQTGTGKTAGFALPLLQRLVQQGPAVSSNRARVLVLVPTRELAEQVLQSFVAYGKGLDLRFLAAYGGVSINPQMMKLRKGVDVLVATPGRLLDLNRQNAVQFDQVETLVLDEADRMLDLGFARELNAVFAALPVQRQTLLFSATFTDDIRTMAASILRSPVNISVSPPNVTGSKIKQWVVTVDKRNKPDLFMHLVAENNWDHALVFVKTRNGVEYLAAMLDEAGYAVDTIHGDKPQPARLRALERFKTGEVQMLVATDVAARGLDIDDLPLVINVDLPIVAQDYVHRIGRTGRAGASGVAVSLVCADEAPQLAAIEALIGQTLRREEEPGFEAEHRVPETSSTGQIIKKPKKPKKPKVPQGGAAATPVAGKKPQPQGGDGKRKGGGAAGKGASVLNGSPFSVQKPRGKGKPAGKAVAGARKPAGKPAGGRGKH | failed
MSLHDQRVHAERDPLDPQAHGLTITRIETIPMVAPLAREFRGSHYHMTHRATIVTRVHTDAGIIGEAYTGDEHETMFDIDRIIHEELAPTLIGQDAMAIERLWDSGYKVTFDILRDRRLGLVALAAVNTAIWDAVGKALKMPLWKLWGGYRNELPMIAIGGYYGEPLGSIADEMHNYQELGLAGVKFKVGGLSAAEDAARITAAREAAGDDFIICIDANQGYKPAVAVDLSRRIADLNIRWFEEPVEWHNDKRSMRDVRYQGSVPVCAGQTEFSASGCRDLMETGAIDVCNFDSSWSGGPTAWLRTAAIATSYDVQMGHHEEPQVSTHLLASQPHGTIAECFHPDRDPFWWNMITNRPKLNNGTLTLSDRPGLGWDLNWDYIDQYRVSKDEGHHHHHH | not failed
